The results in this text go back to patent publication US20050209148A1 (RINAT NEUROSCIENCE, published 2005).

Read-outs that look alike come from different tables or passages of the source.

The target in assay [1] is T1, human TrkB expressed on a stable cell line (human, UniProt Q16620 32-822). Briefly: cell-based or functional assay.
For assay [2], the target named is T1, human TrkB expressed on a stable cell …. Put plainly: cell-based or functional assay. The source holds these as a separate data set.

T1 sequence (Q16620 32-822): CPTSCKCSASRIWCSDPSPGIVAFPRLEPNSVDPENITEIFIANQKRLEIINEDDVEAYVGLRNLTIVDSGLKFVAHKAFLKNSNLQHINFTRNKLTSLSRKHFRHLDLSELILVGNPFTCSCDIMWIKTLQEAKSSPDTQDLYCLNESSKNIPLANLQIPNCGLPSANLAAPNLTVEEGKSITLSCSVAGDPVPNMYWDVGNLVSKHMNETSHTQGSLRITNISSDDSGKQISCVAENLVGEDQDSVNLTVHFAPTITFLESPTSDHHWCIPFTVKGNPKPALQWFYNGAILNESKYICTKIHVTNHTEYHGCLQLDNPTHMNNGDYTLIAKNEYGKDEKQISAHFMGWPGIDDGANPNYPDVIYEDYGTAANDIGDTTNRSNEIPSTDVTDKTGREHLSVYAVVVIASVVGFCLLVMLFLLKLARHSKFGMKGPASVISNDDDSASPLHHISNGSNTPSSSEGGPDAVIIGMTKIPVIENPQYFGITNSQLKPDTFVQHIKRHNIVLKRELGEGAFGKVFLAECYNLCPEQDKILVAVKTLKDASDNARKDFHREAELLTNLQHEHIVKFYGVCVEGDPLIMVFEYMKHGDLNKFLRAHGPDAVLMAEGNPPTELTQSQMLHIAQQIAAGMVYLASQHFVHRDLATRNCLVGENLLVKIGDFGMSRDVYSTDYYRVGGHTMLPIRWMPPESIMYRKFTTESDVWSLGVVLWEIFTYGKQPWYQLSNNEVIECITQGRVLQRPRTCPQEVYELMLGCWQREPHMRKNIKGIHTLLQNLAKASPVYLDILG

B1: human NT-4/5 (mature human neurotrophin-4/5) (ligand)
chain: GVSETAPASRRGELAVCDAVSGWVTDRRTAVDLRGREVEVLGEVPAAGGSPLRQYFFETRCKADNAEEGGPGAGGGGCRGVDRRHWVSECKAKQSYVRALTADAQGRVGWRWIRIDTACVCTLLSRTGRA
Take B1: the “EC50 (read off the curve), receptor tyrosine phosphorylation in trkB expressing cell line” value (“EC50 (read off the curve)” for short) is roughly 0.7 nM in assay [1] and roughly 0.2 nM in assay [2].

B2: 1PEG-NT4-G1S (ligand)
chain 1: SVSETAPASRRGELAVCDAVSGWVTDRRTAVDLRGREVEVLGEVPAAGGSPLRQYFFETRCKADNAEEGGPGAGGGGCRGVDRRHWVSECKAKQSYVRALTADAQGRVGWRWIRIDTACVCTLLSRTGRA
chain 2: SVSETAPASRRGELAVCDAVSGWVTDRRTAVDLRGREVEVLGEVPAAGGSPLRQYFFETRCKADNAEEGGPGAGGGGCRGVDRRHWVSECKAKQSYVRALTADAQGRVGWRWIRIDTACVCTLLSRTGRA
modifications: no PEG; N-terminal serine (position 1) treated with periodate (oxidized to an aldehyde); N-terminal serine (position 1) oxidized to an aldehyde and linked to 20K-m-PEG-HZ (methoxy polyethylene glycol hydrazide, 20 kDa)
Turning to B2, the “EC50 (read off the curve)” value in assay [1] was roughly 1 nM.

B3: 2PEG-NT4-G1S (ligand)
chain: SVSETAPASRRGELAVCDAVSGWVTDRRTAVDLRGREVEVLGEVPAAGGSPLRQYFFETRCKADNAEEGGPGAGGGGCRGVDRRHWVSECKAKQSYVRALTADAQGRVGWRWIRIDTACVCTLLSRTGRA
modifications: N-terminal serine (position 1) oxidized to an aldehyde and linked to 20K-m-PEG-HZ (methoxy polyethylene glycol hydrazide, 20 kDa)
B3: the “EC50 (read off the curve)” value in assay [1] was roughly 1 nM.
